Laboratory results taken from publication PMC5811216, “Cleavage activates Dispatched for Sonic Hedgehog ligand release” (eLife, 2018).
Numbering of substitutions follows the chain as printed. In names and notes the source's numbering stands.

B1: DispHA, wild-type murine Dispatched 1 with a carboxyl-terminal HA tag (natural protein, mouse, UniProt Q3TDN0 1-1521, looked up)
chain: MAVISGSDSVLLSNGSISTSTSNPSPLSPSDGDLPAQHLGPRETPRTKASPNGCLQLNGTVKSSFLPLDNQRTPQTPTQCCHPCPYHHPVSSHSNHQECHPEAGLAASPALASCRMQPHSEYSASLCPNHSPVYQAAHCLQPSPSFCLHHPWPDHFQHQPVRQHLTIIRPSRPFKFPRSYAALLADWPVVVLGMCTLLIVVCALVGVLVPELPDFSDPLLGFEPRGTTIGQRLVTWNNMMRNTGYKATLANYPYKYAEEQARSHRDDRWSDDHHERERREVDWNFQKDSFFCDVPSDGYSRVVFASAGGETLWNLPAIKSMCDVDNSRIRSHPQFSDLCQRTTAVSCCPSWTLGNYIAILNNRSSCQKIVERDVSHTLKLLRTCAKHYQNGTLGPDCWDKAARRKDQLKCTNVPRKCTKYNAVYQILHYLVDKDFMTPKTADYAVPALKYSMLFSPTEKGESMMNIYLDNFENWNSSDGITTVTGIEFGIKHSLFQDYLLMDTVYPAIAIAIVLLIMCVYTKSMFITLMTMFAIISSLIVSYFLYRVVFNFEFFPFMNLTALIILVGIGADDAFVLCDVWNYTKFDKPRAETSEAVSVTLQHAALSMFVTSFTTAAAFYANYVSNITAIRCFGVYAGTAILVNYVLMVTWLPAVIVLHERYLLNIFTCFRKPQPQAYDKSCWAVLCQKCRRVLFAVSEASRIFFEKVLPCIVIKFRYLWLIWFLALTVGGAYIVCVNPKMKLPSLELSEFQVFRSSHPFERYDAEFKKLFMFERVHHGEELHMPITVIWGVSPEDSGDPLNPKSKGELTLDSTFNIASPASQAWILHFCQKLRNQTFFHQTEQQDFTSCFIETFKQWMENQDCDEPALYPCCSHCSFPYKQEVFELCIKKAIMELDRSTGYHLNNKTPGPRFDINDTIRAVVLEFQSTFLFTLAYEKMQQFYKEVDSWISHELSSAPEGLSRGWFVSNLEFYDLQDSLSDGTLIAMGLSVAVAFSVMLLTTWNIIISLYAIVSIAGTIFVTVGSLVLLGWELNVLESVTISVAVGLSVDFAVHYGVAYRLAPDPDREGKVIFSLSRMGSAIAMAALTTFVAGAMMMPSTVLAYTQLGTFMMLVMCVSWAFATFFFQCLCRCLGPQGTCGQIPFPTKLQCSPFSHTLSARPGDRGPSKTHAASAYSVDARGQKSQLEHEFYELQPLASHSCTSSEKTTYEEPHTCSEFFNGQAKNLRMPVPAAYSSELTKSPSSEPGSALLQSCLEQDTVCHFSLNPRCNCRDAYTHLQYGLPEIHCQQMGDSLCHKCASTAGGFVQIQSSVAPLKASHQAAEGLLHPAQHMLPPGMQNSRPRNFFLHSVQHFQAQENLGRTSTHSTDERLPRTAELSPPPSDSRSTESFQRACCHPENNQRRLCKSRDPGDTEGSGGTKSKVSGLPNQTDKEEKQVEPSLLQTDETVNSEHLNHNESNFTFSHLPGEAGCRSCPNSPQSCRSIMRSKCGTEDCQTPNLEANVPAVPTHSDLSGESLLIKTL
notes: Dispatched 1 (Disp), mouse; Disp1 cDNA from RIKEN introduced into Not1-Xba1 sites of pCDNA3; The lysate holds both Disp175 and the cleaved Disp145; On the native gel there was a ~480 kDa fraction (trimer) and ~750 kDa fractions; also called pCDNA3 Dispatched WT HA; pCDNA-DispHA; source: NIH3T3, transfected, in lysate (1% DDM); not shown: HA, C-terminal, kept
B2: DispCSHA, cleavage site mutant (R279A, E280A) of murine Dispatched 1 with a carboxyl-terminal HA tag (natural protein, mouse, UniProt Q3TDN0 1-1521, looked up)
chain: B1 chain with R279A, E280A
notes: Dispatched 1 (Disp), mouse; Disp1 cDNA from RIKEN in pCDNA3; convertase motif disrupted by R279A, E280A; also called DispHA-CS; pCDNA-DispCSHA; source: NIH3T3, transfected, in lysate (1% DDM); not shown: HA, C-terminal, kept

Target: the molecule itself
Assay: native gel or EMSA; NIH3T3 lysates in NativePAGE sample buffer with 1% DDM, Benzonase treated; 4-20% NativePAGE Bis-Tris gel; anti-HA western blot

| Protein | stoichiometry N |
| --- | --- |
| B1 | 3 |
| B2 | 3 |
